Source: EP2431054A2 (Human Genome Sciences, Inc., dated 2012)

Key:
TACI-Fc fusion protein = biological target: T1, TACI-Fc fusion protein (Homo sapiens (Human), UniProt O14836 1-159); assay: BIAcore (SPR), TACI-Fc amine-coupled to CM5 chip, TNF-epsilon as analyte
T1 construct: The dimeric form was enriched by size exclusion; also called full-length TACI-Fc; soluble TACI-Fc; not shown: Fc portion from vector pC4-Fc
T1 sequence: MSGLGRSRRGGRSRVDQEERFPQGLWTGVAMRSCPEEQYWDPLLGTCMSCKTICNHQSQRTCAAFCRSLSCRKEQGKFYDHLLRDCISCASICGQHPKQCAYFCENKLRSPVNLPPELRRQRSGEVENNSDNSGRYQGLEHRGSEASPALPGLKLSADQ

[1] = biological target: FLAG-epitope-tagged TNF-epsilon (in conditioned medium) (human) (UniProt O75888); assay: co-immunoprecipitation with M2 anti-FLAG antibody, Western detection with anti-FLAG antibody

B1: TNF-epsilon, trimeric form isolated by size exclusion chromatography (ligand)
chain: AVLTQKQKNDSDVTEVMWQPALRRGRGLQAQGYGVRIQDAGVYLLYSQVLFQDVTFTMGQVVSREGQGRQETLFRCIRSMPSHPDRAYNSCYSAGVFHLHQGDILSVIIPRARAKLNLSPHGTFLGFVKL
notes: This is the protein flowed over the TACI-Fc chip
- Kd (TACI-Fc fusion protein): 6 nM

B2: TACI-Fc fusion protein (Fc fusion, not shown: a dimerising Fc or GST)
chain: T1 sequence
- percent of the TNF-epsilon present in the conditioned medium found in the immunoprecipitated TACI-Fc-TNF-epsilon complex [1]: 20%
